Values of other authors in publication PMC4310935.

Biological target: GLP-1 receptor (Mus musculus) (UniProt O35659)
Chain of UniProt O35659 (O35659 22-463): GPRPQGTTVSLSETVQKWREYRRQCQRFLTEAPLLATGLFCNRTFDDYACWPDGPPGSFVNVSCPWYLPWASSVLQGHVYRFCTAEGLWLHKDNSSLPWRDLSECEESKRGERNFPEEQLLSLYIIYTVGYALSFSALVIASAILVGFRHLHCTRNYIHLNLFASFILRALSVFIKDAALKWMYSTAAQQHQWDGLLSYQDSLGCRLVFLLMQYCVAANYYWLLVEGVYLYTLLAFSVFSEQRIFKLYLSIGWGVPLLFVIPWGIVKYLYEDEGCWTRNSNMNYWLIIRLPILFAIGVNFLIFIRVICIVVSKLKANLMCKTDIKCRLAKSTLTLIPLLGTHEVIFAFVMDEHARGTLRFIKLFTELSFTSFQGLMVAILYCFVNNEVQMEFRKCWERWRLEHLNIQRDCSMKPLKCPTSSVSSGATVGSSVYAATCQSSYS

Chain of GLP-1 (P55095 98-127): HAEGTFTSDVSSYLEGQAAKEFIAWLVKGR

- Kd: 0.5 nM
Substance: GLP-1 (from UniProt P55095)
